The Km is the substrate concentration at which the rate is half of its maximum.

Here are results for seven molecules from US7056715B1, “GST sequences from soybean and their use in the production of herbicide resistant plants” (Syngenta Limited, priority 1999, dated 2006).

Data set [1] concerns the target T1, Glycine max (soybean) homoglutathione synthetase, recombinant, C-terminal HIS-tag (pET-MS4-His), SEQ ID No. 1 (Glycine max, UniProt Q9M426).
T1 sequence (Q9M426 1-499): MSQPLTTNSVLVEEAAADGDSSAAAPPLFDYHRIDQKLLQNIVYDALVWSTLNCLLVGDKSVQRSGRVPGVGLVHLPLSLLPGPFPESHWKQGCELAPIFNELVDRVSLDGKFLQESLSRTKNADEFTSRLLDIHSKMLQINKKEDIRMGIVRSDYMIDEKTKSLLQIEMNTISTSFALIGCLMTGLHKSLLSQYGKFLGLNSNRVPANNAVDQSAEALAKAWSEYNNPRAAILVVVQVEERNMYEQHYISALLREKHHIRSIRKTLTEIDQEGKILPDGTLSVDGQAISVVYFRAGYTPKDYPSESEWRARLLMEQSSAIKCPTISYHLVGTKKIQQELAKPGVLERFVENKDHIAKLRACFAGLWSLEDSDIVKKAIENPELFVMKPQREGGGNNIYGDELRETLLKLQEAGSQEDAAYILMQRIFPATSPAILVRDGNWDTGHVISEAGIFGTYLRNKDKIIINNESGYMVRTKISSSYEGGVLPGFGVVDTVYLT
The data set can be described thus: Activity of recombinant homoglutathione synthetase (addition of glycine or β-alanine onto γ-glutamylcysteine; monobromobimane derivatisation). The class given is biochemical. The following applies: 250 mM Tris-HCl pH 8.0, 50 mM KCl, 20 mM MgCl2, 5 mM DTT, 10 mM ATP, 1 mM γ-glutamylcysteine; 30° C. On the procedure:
(§1) A 5′ Nco 1 and 3′ Xho 1 restriction enzyme site were introduced into the homoglutathione synthetase cDNA via PCR using primers MS4-Nco (SEQ ID No. 19) and MS-4-HIS (SEQ ID No. 20). Additionally, the use of the MS4-HIS primer provided a C-terminal HIS-tag to assist purification of the enzyme. 5.2 The resulting PCR fragment was digested with Nco1 and Xho 1 and ligated into similarly digested pET-24d. This vector was termed pET-MS4-His. The purification of homoglutathione synthetase was performed using the following method. E. coli BL21 (DE3) harbouring the pET-MS4-His plasmid (section 1.3) were grown at 30° C. until OD600=0.5, after which isopropyl-β-D-thiogalactoside (IPTG) was added to a final concentration of 0.1 mM. Following a 3 hour incubation the bacteria were collected by centrifugation, re-suspended in buffer A (20 mM Tris, 0.5 M NaCl, 5 mM imidazole pH 8.0) and lysed. […] 5.3 The eluted protein was concentrated using a Centriplus 30 (Amicon™) spin column and re-suspended in buffer A prior to application onto a 1 ml HiTrap chelating column (Phamacia™), pre-charged with NiSO4 and equilibrated as described previously. Affinity bound protein was then recovered using an increasing concentration of 20–200 mM imidiazole and the presence of His-tagged recombinant homoglutathione synthetase was detected using His-tagged antibodies according to known procedures. […]

The nature of data set [2]: GST activity of purified recombinant protein toward CDNB. The class given is biochemical. The following applies: recombinant enzyme, ±SE, n=2; for GST activity toward CDNB, GSH: thiol GSH; for GST activity toward CDNB, hGSH: thiol hGSH. The procedure: (§2) 4.2 Nde I or Nco I sites were introduced as appropriate into the 5′ end cDNAs encoding glutathione S-transferase and Bam H1 at the 3′ end using PCR. The cDNA was then cloned into pET-24a or pET-24d as appropriate. The resulting plasmids were introduced into E. coli BL21 (DE3) using standard bacterial transformation procedures known to the skilled artisan. Expression and purification of the recombinant GST was performed using anion-exchange chromatography and S-Hexyl-glutathione affinity chromatography according to the methods known in the art (for example, Skipsey et al., 1997). GST activity of the purified recombinant protein toward CDNB, acetochlor, acifluorfen, chlorimuron-ethyl, fluorodifen. fomesafen and metolachlor in the presence of both glutathione and homoglutathione was performed via assays which are described in Andrews et al., 1997 and Skipsey et al., 1997.

Data set [3] is described as follows: GST activity of purified recombinant protein toward acetochlor. The following applies: recombinant enzyme, ±SE, n=2; for GST activity toward acetochlor, GSH: thiol GSH; for GST activity toward acetochlor, hGSH: thiol hGSH. The format is biochemical. On the procedure:
as §2

Data set [4] can be described thus: GST activity of purified recombinant protein toward acifluorfen. The class given is biochemical. The following applies: recombinant enzyme, ±SE, n=2; for GST activity toward acifluorfen, GSH: thiol GSH; for GST activity toward acifluorfen, hGSH: thiol hGSH. The procedure:
as §2

A short description of data set [5]: GST activity of purified recombinant protein toward fluorodifen. The class given is biochemical. The following applies: recombinant enzyme, ±SE, n=2; for GST activity toward fluorodifen, GSH: thiol GSH; for GST activity toward fluorodifen, hGSH: thiol hGSH. The procedure: as §2
Data set [6] is described as follows: GST activity of purified recombinant protein toward fomesafen. The following applies: recombinant enzyme, ±SE, n=2; for GST activity toward fomesafen, GSH: thiol GSH; for GST activity toward fomesafen, hGSH: thiol hGSH. The class given is biochemical. The procedure: as §2
Data set [7] in a line: GST activity of purified recombinant protein toward metolachlor. The class given is biochemical. The following applies: recombinant enzyme, ±SE, n=2; for GST activity toward metolachlor, GSH: thiol GSH; for GST activity toward metolachlor, hGSH: thiol hGSH. The procedure: as §2
Substrate in data set [8]: NCCC(=O)O
Nature of the data set: purified protein, by the assay type. Particulars: other: 250 mM Tris-HCl pH 8.0, 50 mM KCl, 20 mM MgCl2, 5 mM DTT, 10 mM ATP, 1 mM γ-glutamylcysteine, 30° C.

Substrate in data set [9]: NCC(=O)O
The data set can be described thus: purified protein, by the assay type. The class given is biochemical, Glycine max (soybean). Particulars: other: 250 mM Tris-HCl pH 8.0, 50 mM KCl, 20 mM MgCl2, 5 mM DTT, 10 mM ATP, 1 mM γ-glutamylcysteine, 30° C. The procedure:
as §1

Consider `NCCC(=O)O` [β-alanine], for which the Vmax in data set [1] is 42250 ± 3173 pkats/mg hGS.
Regarding `NCC(=O)O` [Glycine], in data set [1], the Vmax is listed as 3300 ± 341 pkats/mg hGS.

B1: GST 3.3: Recombinant soybean Glutathione-S-transferase 3.3, SEQ ID No. 10; may also be referred to as GST 3.6 (protein)
chain: MAERDLRLLGAWFSPFALRVQIALNLKGLDYEVVEETLNPKSELLLKSNPVHKKIPVFFHGDKVICESAIIVEYIDEVWSNNALSILPQNAYDRANARFWVSYIDDKWLTSLKSVLATEDDEAKKLHFEQAEEVLEKVEEVFNKCSEGKAYFGGDTIGFVDIGFGSFLSFIRVSENMNERKLLDETKYPGLTLWAETFAADPAVKGLLPETEKLVEFAKILQLKWAAAAAAK
modifications: Glycine max
Turning to B1, in [2], the “GST activity toward CDNB, GSH” value is listed as 82.9 nkat mg-1 and the “GST activity toward CDNB, hGSH” value was 189.0 nkat mg-1. Further, the “GST activity toward acetochlor, GSH” value in [3] is 420.0 pkat mg-1. Also, in data set [4], the “GST activity toward acifluorfen, GSH” value turned out to be 123.0 pkat mg-1 and the “GST activity toward acifluorfen, hGSH” value worked out at 1350 pkat mg-1. Also, in data set [5], the “GST activity toward fluorodifen, GSH” value is given as 360.5 pkat mg-1 and the “GST activity toward fluorodifen, hGSH” value turned out to be 602.5 pkat mg-1. In [6], the “GST activity toward fomesafen, GSH” value was 110 pkat mg-1 and the “GST activity toward fomesafen, hGSH” value is given as 6250 pkat mg-1. Further, in [7], the “GST activity toward metolachlor, GSH” value worked out at 312.0 pkat mg-1 and the “GST activity toward metolachlor, hGSH” value came out at 264.5 pkat mg-1.

B2: GST 3.1: Recombinant soybean Glutathione-S-transferase 3.1, SEQ ID No. 8 (protein)
chain: MAEQDKVILHGMWASPYAKRVELALNFKGIPYEYVEEDLRNKSDLLLKYNPVHKKVPVLVHNGKAIAESMVILEYIDETWKDGPKLLPSDSYKRAQARFWCHFIQDQLMESTFLVVKTDGEAQQKAIDHVYEKLKVLEDGMKTYLGEGNAIISGVENNFGILDIVFCALYGAYKAHEEVIGLKFIVPEKFPVLFSWLMAIAEVEAVKIATPPHEKTVGILQLFRLSALKSSSATE
modifications: Glycine max
B2: in data set [2], the “GST activity toward CDNB, GSH” value is recorded as 59.2 nkat mg-1 and the “GST activity toward CDNB, hGSH” value is reported as 59.2 nkat mg-1. In addition, in data set [3], the “GST activity toward acetochlor, GSH” value came out at 190.5 pkat mg-1 and the “GST activity toward acetochlor, hGSH” value is given as 11.0 pkat mg-1. Further, in data set [4], the “GST activity toward acifluorfen, GSH” value came to 152.5 pkat mg-1 and the “GST activity toward acifluorfen, hGSH” value is recorded as 238.5 pkat mg-1. In [5], the “GST activity toward fluorodifen, GSH” value amounted to 1150 pkat mg-1 and the “GST activity toward fluorodifen, hGSH” value was 1350 pkat mg-1. Also, in data set [6], the “GST activity toward fomesafen, GSH” value came out at 213.6 pkat mg-1 and the “GST activity toward fomesafen, hGSH” value was determined as 484.6 pkat mg-1. In data set [7], the “GST activity toward metolachlor, GSH” value amounted to 177.5 pkat mg-1 and the “GST activity toward metolachlor, hGSH” value came out at 67.5 pkat mg-1.

B3: GST 3.2: Recombinant soybean Glutathione-S-transferase 3.2, SEQ ID No. 9 (protein)
chain: MAEVKLHGFWYSPYTLRVVWTLKLKDIPYQNIEEDRYNKSLQLLEYNPVYKKTPVLVHNGKPLCESMLIVEYIDEIWAHNSLLPADPYERALARFWVKYADDDMFSAVIAFFLSNNDEEREKSIEKIWEHLRVVENQCFGDQKKFFGGDIINIMDIAFGSIFKILVVAEDILDAKVLEDEKFPHLHSWYNNFKDVAVIKENLPDHEKMVAFAKFIREKRLACT
modifications: Glycine max
As for B3, in data set [2], the “GST activity toward CDNB, GSH” value was 24.9 nkat mg-1 and the “GST activity toward CDNB, hGSH” value came to 10.3 nkat mg-1. Further, in data set [3], the “GST activity toward acetochlor, GSH” value is 418.0 pkat mg-1 and the “GST activity toward acetochlor, hGSH” value turned out to be 143.0 pkat mg-1. Besides, in data set [4], the “GST activity toward acifluorfen, GSH” value is recorded as 7.5 pkat mg-1 and the “GST activity toward acifluorfen, hGSH” value is 23.2 pkat mg-1. Further, in data set [5], the “GST activity toward fluorodifen, GSH” value was 78.2 pkat mg-1 and the “GST activity toward fluorodifen, hGSH” value stood at 68.0 pkat mg-1. For the same molecule, in data set [6], the “GST activity toward fomesafen, GSH” value came to 21.3 pkat mg-1 and the “GST activity toward fomesafen, hGSH” value came out at 201.6 pkat mg-1. Further, in data set [7], the “GST activity toward metolachlor, GSH” value came out at 253.0 pkat mg-1 and the “GST activity toward metolachlor, hGSH” value is 191.5 pkat mg-1.

B4: Glycine max (soybean) homoglutathione synthetase, recombinant, C-terminal HIS-tag (pET-MS4-His), SEQ ID No. 1 (Glycine max) (protein)
chain: T1 sequence (Q9M426 1-499)
B4: the Km in [8] is listed as 0.84 ± 0.19 mM; in data set [9], 54.9 ± 18.7 mM.

B5: GST 2.6: Recombinant soybean Glutathione-S-transferase 2.6, SEQ ID No. 7 (protein)
chain: MSSSQEEVTLLGVVGSPFLHRVQIALKLKGVEYKYLEDDLNNKSDLLLKYNPVYKMIPVLVHNEKPISESLVIVEYIDDTWKNNPILPSDPYQRALARFWAKFIDDKCVVPAWKSAFMTDEKEKEKAKEELFEALSFLENELKGKFFGGEEFGFVDIAAVLIPIIQEIAGLQLFTSEKFPKLSKWSQDFHNHPVVNEVMPPKDQLFAYFKARAQSFVAKRKN
modifications: Glycine max
With B5, in data set [2], the “GST activity toward CDNB, GSH” value was determined as 18.7 nkat mg-1 and the “GST activity toward CDNB, hGSH” value turned out to be 19.0 nkat mg-1. Besides, in [3], the “GST activity toward acetochlor, GSH” value worked out at 352.5 pkat mg-1 and the “GST activity toward acetochlor, hGSH” value came to 391.0 pkat mg-1. Also, in data set [4], the “GST activity toward acifluorfen, hGSH” value was 31.1 pkat mg-1. The “GST activity toward fluorodifen, hGSH” value in [5] is 19.3 pkat mg-1. In [6], the “GST activity toward fomesafen, GSH” value worked out at 27.1 pkat mg-1 and the “GST activity toward fomesafen, hGSH” value was found to be 350.5 pkat mg-1. Besides, in [7], the “GST activity toward metolachlor, GSH” value worked out at 142.0 pkat mg-1 and the “GST activity toward metolachlor, hGSH” value was 95.5 pkat mg-1.
